From paper PMC12930380, “Overcoming Ligand Discovery Challenges: Developing Peptide-Based Tracers for SPSB2” (ACS Chemical Biology, 2025)
Bridge positions count the residues as written; N and C are the ends. Square brackets hold non-standard residues; d marks the D form. Primed or numbered codes have the meaning given here. Ends that are not written are not given here. Peptide text beside a SMILES is read from it. * marks the point of attachment. X1 = O=C(CCC1=[N+]2C(=Cc3ccc(-c4ccc[nH]4)n3[B-]2(F)F)C=C1)*; PEG4′ = tetra(ethylene glycol) spacer; PEG4 = NCCOCCOCCOCCOCCC(=O)O; PEG4″ = not defined here

Assays:
[1] = biological target: T1, hSPSB2^SPRY (Homo sapiens, UniProt Q99619); experiment: Differential scanning fluorimetry (thermal shift); assay type: binding; conditions: DSF, 50 μM peptide, 5 μM His-hSPSB2^SPRY, 30 mM HEPES pH 7.5, 5% DMSO, mean ± SD (n = 4); for Mean Tm: DMSO control 43.2 ± 0.1
T1 construct: Human His6-SPSB2^SPRY (86–219) was expressed as a fusion construct; made in house; host or cells: Escherichia coli BL21(DE3)
T1 sequence (Q99619 26-219 limits assumed): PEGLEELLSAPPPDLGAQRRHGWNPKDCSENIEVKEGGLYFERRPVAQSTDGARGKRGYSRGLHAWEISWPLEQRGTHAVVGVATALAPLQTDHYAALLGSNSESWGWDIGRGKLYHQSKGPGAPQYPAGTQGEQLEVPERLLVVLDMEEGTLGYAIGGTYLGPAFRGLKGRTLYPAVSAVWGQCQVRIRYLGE
Protocol: For peptide screening, 50 μM peptide was added to 5 μM His-hSPSB2^SPRY diluted in buffer containing 30 mM HEPES pH 7.5, 100 mM NaCl, 1 mM TCEP, 5x SYPRO Orange and 5% DMSO as quadruplicates. Thermal shift analyses were carried out using a QuantStudio 5 Real-Time PCR System (Applied Biosystems) with a temperature gradient ranging from 25 to 95 °C at an increase of 0.05 °C/s. Data analysis was performed by fitting a Boltzmann sigmoidal curve to the raw values using the Protein Thermal Shift software (Applied Biosystems).

[2] = test system: HCT116 cells; experiment: CellTiter-Glo cytotoxicity assay; assay type: cell-based; conditions: 0.39 μM to 50 μM, 2 h incubation, 37 °C, n = 6
Protocol: For cytotoxicity measurements, 10 μL HCT116 cells in Dulbecco’s Modified Eagle Medium (DMEM) were seeded at 2*10^5 cells/mL into a white 384-well-flat-bottom plate. […] Ten μL CellTiter-Glo 2.0 Reagent (Promega) was added to each well, followed by an incubation of 10 min at RT. Luminescence was measured, using a PheraSTAR FSX plate reader. Data was normalized to cells treated with 1% DMSO (100% survival control) and digitonin (0% survival control), then plotted using GraphPad Prism version 8.0.1.

[3] = biological target: T1, hSPSB2^SPRY; experiment: Surface plasmon resonance single cycle kinetics; assay type: binding; conditions: immobilized His-hSPSB2^SPRY; for SPR binding behaviour (qualitative): no KD determined; for koff / kon: mean ± SD (n = 3); for koff: read-out: SPR koff (dissociation rate constant); for kon: read-out: SPR kon (association rate constant)
Protocol: Surface Plasmon Resonance experiments were conducted on a Biacore T200 instrument with a Series S Sensor Chip CM5 (Cytiva) and 10 mM HEPES pH 7.5, 150 mM NaCl, 0.5 mM TCEP, 0.05% Tween20 and 2% DMSO for the running buffer. His-hSPSB2^SPRY was diluted to 5 μg/mL in Acetate pH 5.5 and immobilized at 10 μL/min to reach 400–700 RU response levels on Flow-channel (FC) 2–4 for triplicates. Immobilization was performed via standard amine coupling procedure by injecting a mixture of 483 mM EDC and […] for activation with a subsequent injection of 1 M ethanolamine for deactivation. FC1 was used as a reference surface without protein-injection. Kinetic titration experiments were performed using a single-cycle kinetics procedure, with five peptide concentrations (0.8 nM to 1 μM) injected for 150 s each at a flow rate of 30 μL/min, followed by a dissociation phase of 600 s. After each peptide titration, multiple buffer injections were performed to reach a stable baseline. Solvent correction and blank injections were also included. After referencing, blank subtraction, and solvent correction, the data were analyzed using the Biacore T200 evaluation software. Sensorgrams with overlaid fit were replotted using GraphPad Prism version 8.0.1.

[4] = biological target: Human His6-SPSB2^SPRY (86–219) (human) (UniProt Q99619); experiment: differential scanning fluorimetry; 50 μM peptide added to 5 μM His-hSPSB2^SPRY; 30 mM HEPES pH 7.5, 100 mM NaCl, 1 mM TCEP, 5x SYPRO Orange, 5% DMSO; 25 to 95 °C; quadruplicates
[5] = biological target: T2, C-terminally Nanoluc-tagged human full length SPSB2 (human, UniProt Q99619 1-263); experiment: FRET or BRET; NanoBRET displacement in intact HCT116 cells transfected with SPSB2-NanoLuc; 30 nM cyclic TAT tracer, cyclic TAT peptide titrated 6 nM to 50 uM, triplicates; conditions: one partner purified
T2 construct: also called SPRY domain-containing SOCS box protein 2; source: HCT116, transfected, in intact cells; not shown: NanoLuc, C-terminal, kept
T2 sequence (looked up): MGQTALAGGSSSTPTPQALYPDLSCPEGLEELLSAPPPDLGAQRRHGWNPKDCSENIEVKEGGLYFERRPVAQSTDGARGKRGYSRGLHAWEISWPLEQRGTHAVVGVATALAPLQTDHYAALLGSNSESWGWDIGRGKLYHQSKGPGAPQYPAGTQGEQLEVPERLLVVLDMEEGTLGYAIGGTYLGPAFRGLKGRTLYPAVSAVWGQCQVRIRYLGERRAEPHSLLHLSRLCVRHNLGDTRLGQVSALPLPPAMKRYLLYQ

[6] = biological target: T2, C-terminally Nanoluc-tagged human full …; experiment: FRET or BRET; NanoBRET displacement in intact HCT116 cells transfected with SPSB2-NanoLuc; 20 nM cyclic TAT tracer, cyclic TAT peptide titrated 6 nM to 50 uM, triplicates (biological replicate); conditions: one partner purified
[7] = biological target: T3, C-terminally Nanoluc-tagged human full length SPSB2 (human, UniProt Q99619 1-263); experiment: FRET or BRET; NanoBRET tracer titration, apparent KD; 39 pM - 2.5 μM tracer titrated to intact HCT116 cells transfected with SPSB2-NanoLuc; 2 h at 37 °C; conditions: one partner purified
T3 construct: source: HCT116, transfected (FuGENE HD), in intact or digitonin-permeabilized cells; not shown: NanoLuc, C-terminal, kept
T3 sequence (looked up): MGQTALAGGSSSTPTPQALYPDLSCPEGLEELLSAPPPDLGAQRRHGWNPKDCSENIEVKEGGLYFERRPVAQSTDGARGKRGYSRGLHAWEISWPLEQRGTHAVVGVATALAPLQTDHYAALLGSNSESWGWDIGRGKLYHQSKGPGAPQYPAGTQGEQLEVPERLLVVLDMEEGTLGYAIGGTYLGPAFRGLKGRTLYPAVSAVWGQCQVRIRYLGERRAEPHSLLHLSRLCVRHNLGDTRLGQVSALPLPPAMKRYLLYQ

[8] = biological target: T3, C-terminally Nanoluc-tagged human full …; experiment: FRET or BRET; NanoBRET tracer titration, apparent KD; 39 pM - 2.5 μM tracer titrated to HCT116 cells transfected with SPSB2-NanoLuc and permeabilized with 25 μM digitonin; conditions: one partner purified
[9] = biological target: Human His6-SPSB2^SPRY (86–219) (human) (UniProt Q99619); experiment: differential scanning fluorimetry
[10] = biological target: Human His6-SPSB2^SPRY (86–219) (human) (UniProt Q99619); experiment: SPR

## CC[C@H](C)[C@H](NC(=O)[C@H](CC(=O)O)NC(=O)[C@@H](NC(=O)CNC(=O)[C@H](CO)NC(=O)CNC(=O)[C@@H]1CSSC[C@H](NC(=O)CCOCCOCCOCCOCCN)C(=O)N[C@@H](Cc2ccc(O)cc2)C(=O)NCC(=O)N[C@@H](CCCNC(=N)N)C(=O)N[C@@H](CCCCN)C(=O)N[C@@H](CCCCN)C(=O)N[C@@H](CCCNC(=N)N)C(=O)N[C@@H](CCCNC(=N)N)C(=O)N[C@@H](CCC(N)=O)C(=O)N[C@@H](CCCNC(=N)N)C(=O)N[C@@H](CCCNC(=N)N)C(=O)N[C@@H](CCCNC(=N)N)C(=O)N1)C(C)C)C(=O)N[C@@H](CC(N)=O)C(=O)N[C@@H](CC(N)=O)C(=O)N[C@@H](CC(N)=O)C(=O)O [Cyclic TAT peptide] (H-[PEG4]CYGRKKRRQRRRCGSGVDINNN-OH; disulfide 2-14; N-terminus and C-terminus assumed)
[1]
  ΔTm at 50 µM: 8.1 ± 0.1 °C
  Mean Tm: 51.4 ± 0.1 °C
[2]
  Impact on cell viability (CellTiter-Glo, qualitative): no impact on cell viability at any tested concentration
[3]
  SPR binding behaviour (qualitative): non 1:1 binding interaction

## CC[C@H](C)[C@H](NC(=O)[C@H](CC(=O)O)NC(=O)[C@@H](NC(=O)CNC(=O)[C@H](CO)NC(=O)CNC(=O)[C@@H]1CSSC[C@H](NC(=O)CCOCCOCCOCCOCCNC(=O)CCC2=[N+]3C(=Cc4ccc(-c5ccc[nH]5)n4[B-]3(F)F)C=C2)C(=O)N[C@@H](Cc2ccc(O)cc2)C(=O)NCC(=O)N[C@@H](CCCNC(=N)N)C(=O)N[C@@H](CCCCN)C(=O)N[C@@H](CCCCN)C(=O)N[C@@H](CCCNC(=N)N)C(=O)N[C@@H](CCCNC(=N)N)C(=O)N[C@@H](CCC(N)=O)C(=O)N[C@@H](CCCNC(=N)N)C(=O)N[C@@H](CCCNC(=N)N)C(=O)N[C@@H](CCCNC(=N)N)C(=O)N1)C(C)C)C(=O)N[C@@H](CC(N)=O)C(=O)N[C@@H](CC(N)=O)C(=O)N[C@@H](CC(N)=O)C(=O)O [Cyclic TAT tracer] ({X1-PEG4}-CYGRKKRRQRRRCGSGVDINNN-OH; disulfide 1-13)
[2]
  Concentration leading to reduced cell survival (CellTiter-Glo): above 10 μM

## CC[C@H](C)[C@H](NC(=O)[C@H](CC(=O)O)NC(=O)[C@@H](NC(=O)CNC(=O)[C@H](CO)NC(=O)CNC(=O)[C@H](CC(=O)O)NC(=O)CNC(=O)[C@H](CCCNC(=N)N)NC(=O)CCOCCOCCOCCOCCN)C(C)C)C(=O)N[C@@H](CC(N)=O)C(=O)N[C@@H](CC(N)=O)C(=O)N[C@@H](CC(N)=O)C(=O)O [Linear RGD peptide] (H-[PEG4]RGDGSGVDINNN-OH; N-terminus and C-terminus assumed)
[1]
  ΔTm at 50 µM: 10.9 ± 0.2 °C
  Mean Tm: 54.1 ± 0.2 °C
[3]
  koff: 0.032 s⁻¹
  kon: 200000 M⁻¹ s⁻¹

## CC[C@H](C)[C@H](NC(=O)[C@H](CC(=O)O)NC(=O)[C@H](CCCCN)NC(=O)[C@H](CCC(=O)O)NC(=O)[C@H](CCC(=O)O)NC(=O)[C@@H](N)CCCCN)C(=O)N[C@@H](CC(N)=O)C(=O)N[C@@H](CC(N)=O)C(=O)N[C@@H](CC(N)=O)C(=O)N[C@H](C(=O)N[C@@H](CCCCN)C(=O)N[C@@H](CCCCN)C(=O)N[C@H](C(=O)O)[C@@H](C)O)C(C)C [iNOS peptide, reference compound] (H-KEEKDINNNVKKT-OH)
[1]
  ΔTm at 50 µM: 14.1 ± 0.1 °C
[3]
  koff: 0.0024 s⁻¹
  kon: 2.9e+06 M⁻¹ s⁻¹

## PEG4-YGRKKRRQRRRGSGVDINNN [Linear TAT peptide]
[1]
  ΔTm: 10.6 ± 0.1 °C
  Mean Tm: 53.8 ± 0.1 °C
[3]
  SPR binding behaviour (qualitative): non 1:1 binding interaction

## [PEG4′]CYGRKKRRQRRRCGSGVDINNN (disulfide 2-14) [cyclic TAT peptide]
[4]
  ΔTm: 8.1 °C

B1: cyclic TAT peptide (PEG4-CYGRKKRRQRRRCGSGVDINNN) (peptide)
peptide: [PEG4′]CYGRKKRRQRRRCGSGVDINNN
modifications: disulfide 2-14
notes: also called cyclic TAT peptide variant; source: synthetic peptide (custom synthesized by Synpel Chemical, GeneCust and GenScript Biotech)
[5]
  EC50: ~386 nM
[6]
  EC50: ~200 nM

## [PEG4′]YGRKKRRQRRRGSGVDINNN [linear TAT peptide]
[4]
  ΔTm: 10.6 °C

B2: Cyclic TAT tracer (peptide)
peptide: {BODIPY 576/589-PEG4″}-CYGRKKRRQRRRCGSGVDINNN
modifications: disulfide 1-13
notes: also called fluorophore-tagged cyclic TAT tracer; source: synthetic peptide (custom synthesized by Synpel Chemical, GeneCust and GenScript Biotech)
[7]
  Kd: 86 nM
[8]
  Kd: 346 nM

## KEEKDINNNVKKT [iNOS peptide]
[9]
  ΔTm: 14.1 °C
[10]
  Kd: 0.8 nM
  koff: 0.0024 s⁻¹
  kon: 2.9e+06 M⁻¹ s⁻¹

## [PEG4′]RGDGSGVDINNN [linear RGD peptide]
[9]
  ΔTm: 10.9 °C
[10]
  Kd: 162 nM
  koff: 0.032 s⁻¹
  kon: 200000 M⁻¹ s⁻¹
